Source: the supplement of paper PMC12042874
± gives the uncertainty stated by the source.

Assay: amyloid nucleation score (Sup35N fusion, yeast selection) (log enrichment); library NNK2; higher = more nucleation; inactive = no reads after selection
Method in brief: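 Psi-negative yeast expressed Sup35N fused to peptides of 20 random codons. They were induced 24 hours with 100 μM copper sulfate, grown 7 days at 30°C without adenine and uracil, and their plasmid inserts from input and output were Illumina-sequenced. The nucleation score is the DiMSum log enrichment of output over input reads, centred on the mode score of non-aggregating sequences. Sequences with under 100 input reads were excluded.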

Substance	amyloid nucleation score
VPFGQTAVLSEGDSEVGGMK	-0.228 ± 1.1
GRCPVSRVHGIQRSGDGSVI	-0.383 ± 1.1
LQLVMKCRVKCAFLPGGMAW	5.246 ± 0.048
QRDDVISRCVYHYFKVVPGA	-0.183 ± 0.55
DDLLIRYC	-0.022 ± 0.21
MWIHYKVFRCWTVRAEKVTG	4.29 ± 0.083
IMSSHKSAYRVFLHGLCRMV	-0.028 ± 0.74
YFNRIYYTDIYNMVALVICF	4.4 ± 0.12
GVPCRWTVPNANGSSVWSLR	0.776 ± 0.3
LFFTKGKLFNEAI	inactive
FPRDILVS	-0.13 ± 0.76
ALMNPHFFSWCLKMVGYGYR	inactive
HWNMLSIENLAHVEIIRLGS	7.085 ± 0.043
LDLCTPRSNKTMVNHDINYF	-1.64 ± 0.77
FPCRGLGGVLW	1.97 ± 0.14
VSKRNDLQTSFLYMMHLALQ	-0.536 ± 1
DFALALVYTSMCLVVLYSML	4.4 ± 0.063
NFAGLLY	inactive
IYYGGYVNRLNREAFRGCKL	-1.49 ± 0.49
TKFMIYRDYSLVKSHH	inactive
CMFWSHYTIRFSSWWLGGCE	-0.149 ± 0.79
SWWIVFWGHTTTRWNCSLGD	-0.831 ± 0.35
MAYGGPFSVLSSWDDADNGY	-0.05 ± 0.5
LFAYNDAFSEYFTITYVYQ	-1.14 ± 1.1
SWTCHSFYFSDSFRHGYR	2.63 ± 0.069

Substance	amyloid nucleation score
MYDFLVKGRGVCVNLGNSTW	-1.21 ± 0.48
EVCMWIPHTAVRLYQS	1.15 ± 0.23
WCMLRYCVESGLSVSFMHFS	-0.626 ± 0.63
KVMNNIL	-0.093 ± 0.36
RSYQMSGPIALRKWEEEWAE	0.611 ± 0.46
VKREVLP	0.117 ± 0.37
LDDVNMWFHIGNGRGGGELW	0.092 ± 1.1
LVTVSVVPSWSAVRPTGMNV	0.84 ± 0.46
GIVRGYMLSHLFV	0.262 ± 0.25
EWLAVYVYLHQDGLNNFRS	-0.784 ± 0.4
FQSVLCYE	-0.708 ± 0.54
SKVLKRACYGAAGPFRIVHV	3.29 ± 0.082
DSDHIYNRERQVIFGG	-0.607 ± 0.5
SGIRDTLVSWGPRGMG	-0.309 ± 0.45
REIARGRMYLGSPGLVDIVA	-0.232 ± 0.76
SRLRNYLKVLSD	-0.474 ± 1.1
GFVTDFIIKSI	-1.07 ± 0.64
VMATLHSLFVYRVDTFMFVE	0.358 ± 0.51
VPGSMLLCIVQALKHANMAG	0.417 ± 0.24
LACLVIFMTVSDMDVLSGLF	-0.39 ± 0.21
KAIGCAIKTFRYIYWIIWLL	inactive
SSYNSGLRLLSFTCCV	9.355 ± 0.052
ALWFLLKQSGARYLDLAIPG	-0.06 ± 1.1
RQLAQQYAHAFGYIFHSLYL	1.19 ± 0.4
NDSCELLCESITYTAWFSGQ	3.22 ± 0.12

Substance	amyloid nucleation score
CTYHAQVFTFDHPGRSTRYS	-0.274 ± 0.76
PVGLY	-0.308 ± 0.42
NMDYDIKEQFLSRVPSPRES	-0.95 ± 0.78
FRLRMRSGYSARLSRFFCPL	2.51 ± 0.077
CMFGEEFGLNKNVVGSLGLY	inactive
SNYVSTHRIWFGYSWCKQEK	4.24 ± 0.13
LLWCEWKHG	4.58 ± 0.076
SPQLTIYPRMYSRSLVLNRC	0.078 ± 0.77
PCSANWRLYIANISGSFPMR	5.34 ± 0.083
IVLLINRYMILMGEPNHA	0.17 ± 0.35
EFYPTHDFVQRDRRVTRLRI	0.524 ± 0.81
ARYAVDTSITNECSLALYTS	1.23 ± 0.24
PFDFWRLISSLG	0.531 ± 0.81
SLMFGLIHSWDMK	inactive
PDISKECLTIGNGSACELTD	0.827 ± 0.28
QTMVCTTISAPKSGSAWERS	0.109 ± 0.37
SPTCWRRRTPLIVKYRFISV	1.15 ± 0.34
LFVLDNMDDIWNSIISWVGR	-0.295 ± 0.65
RRRGVLLTRPLKRQLVK	inactive
FMSFVYLHVPSANTCI	3.83 ± 0.045
SCFLSMYVISV	inactive
GQYVQCNMSCVYVFLQWQRR	6.262 ± 0.033
VLLSGLY	inactive
VCIVDLVS	-0.203 ± 0.65
RMLADGVTLVPCWALQL	0.57 ± 0.43

Substance	amyloid nucleation score
YARGNFKSLCCPMV	-0.927 ± 0.78
REEYCSFTICWSLDALHDRG	0.527 ± 0.65
WVIVRLIITTDVQCNYVFLP	0.248 ± 0.38
VGRIEGHFYRSDCRQTYLYQ	-0.785 ± 0.74
RSENSILHVLHRFVA	-0.559 ± 0.64
NMTKRWMVCYHFFFKNYDLT	0.207 ± 0.8
IKTRKHSGIMAC	0.552 ± 0.32
VALHWNWDLFLYVRYFFDHT	inactive
WRPLWSRAIFGS	inactive
FKASWVVRASNKDTHIHRGG	-0.144 ± 0.49
LNTEMGSLKNL	3.08 ± 0.06
QRQDDSVFHDVSHLGQGSSK	9.066 ± 0.078
TVFSIMLLSRM	-0.002 ± 1
FGLSRL	0.713 ± 0.74
YQAGWDEVGSLCLRVRNEKL	4.38 ± 0.074
SIGPQRHLPYLLVFVYWTLS	0.309 ± 0.8
LIMYR	-0.83 ± 0.3
LGSCHAMRLIEDGSGMEWMF	0.645 ± 0.37
VKFTVFTQGQALIVPSGLL	5.32 ± 0.084
SNVSGCMELFNWVGYFPVSP	-0.733 ± 0.62
LLACVSVMFLRSSLINLDRL	-0.637 ± 0.54
DLWGTMKFNF	inactive
TQLTDASSELLPPGSRLQCS	1.03 ± 0.36
CWSTQDHLNCVID	inactive
MDLVSSFRLNVCGT	0.089 ± 0.5

Substance	amyloid nucleation score
PRMRWAVCERP	4.11 ± 0.096
TNPASAGTYSRSYEFCSLRL	1.59 ± 0.18
YSAPCGGDGESWDGFKMMEH	0.053 ± 1.1
VLCLNFHGANVGWDLTTVYT	1.02 ± 0.17
LVHCLSPRIVATGVPHGMMV	1.04 ± 0.35
NVTQMRGSDISLLRMFESNY	0.454 ± 0.45
CCKITDMAPNPVETWKYSKR	0.786 ± 0.27
CTSCLGKRFSCLTINAGLSW	-0.916 ± 0.56
LSHLFSV	-0.381 ± 1.1
SDSKG	0.113 ± 1.1
SLEDCYCDRVI	-0.528 ± 0.34
WFHGTGSQHS	inactive
LYDMTCRSSVKGNV	-1.19 ± 0.75
MTIHVSTELAALSSGL	1.11 ± 0.17
SCPMTSYGE	0.319 ± 0.8
MAGWLLNINLLMPIVGDVLQ	8.131 ± 0.056
LRLVYISTMIQMPFGRRVF	3.73 ± 0.04
ALRVLFLVVWSEHDDCYCGG	0.665 ± 0.42
VYQYICFRVYGVVHWVGSSA	1.4 ± 0.28
SFGTFSCLYSVYNI	2.84 ± 0.086
AFWLL	1.81 ± 0.093
RRDNPWLSHVIW	1.06 ± 0.33
IIGASCTNNSRMVLVWATVF	-0.76 ± 1
SYCYWMFSVLGGSSASEFRY	inactive
TRFLPDAY	-0.903 ± 0.32

Substance	amyloid nucleation score
LVYVT	0.434 ± 0.37
SFPDSSRSKWIS	-0.775 ± 0.45
VPSFYYRIVTYKRAE	2.74 ± 0.094
PCGNPLQRYS	1.62 ± 0.4
EGNYFSGIS	-1.2 ± 0.48
FYCYNFFWFL	6.085 ± 0.033
HLSRFKWKHLFLNTVLTFAV	inactive
YGWFFVYDEVLLFISYSNVV	inactive
FRGLYRARNGVIKRMGLGWH	0.645 ± 0.47
SWCVNVLAYSEKAFSRCVVM	8.583 ± 0.048
TKVMQGVNSMARGV	1.08 ± 0.39
SYRLYFFMGFDMLYLCMG	-0.177 ± 0.79
LNVPGSAMNGRSRNPSF	-0.661 ± 0.48
GASSF	inactive
RESTTRMSAGNVYRVTHKHS	0.224 ± 0.4
NYNLRDHSDVRVRCSLALSE	inactive
IRCRVRK	0.484 ± 0.4
YCHPFVRHRLKLCTDACY	-0.174 ± 0.31
GAAFILSIYYQPSTTPPLRA	2.62 ± 0.084
TLTILRVTCPLFSDGIMFKR	0.609 ± 0.47
NCCEMNVLYLSIRLLFHVTA	1.58 ± 0.097
RSSGSSWRLNYLDEDTVVAR	1 ± 0.4
HEYVAALGWMAEGLSKFLKR	0.579 ± 0.8
NNSYVFFFI	7.013 ± 0.064
VRFHVWDKGHRMI	1.47 ± 0.18

Substance	amyloid nucleation score
IYTNSISACDDVVGKNRVFA	-1.3 ± 1.1
LLNVPGLVAYEIRGPMRYLF	-0.519 ± 0.44
GTFQSYHDTPEECSFRGKSV	-0.114 ± 1.1
IKCFAMGETFLAKVVHCTCW	4.04 ± 0.065
MAMVLWLECTS	0.924 ± 0.47
AVRTLDNMGLYAWISAKVCR	-0.184 ± 0.79
MSVVVLWHGLCLQLYMCDA	-0.23 ± 0.65
PNIKNIT	2.38 ± 0.24
YLHHIRCGYWVVVFVSTGSA	-0.252 ± 0.41
FINSHFHYEECPIMGKQSVL	1.63 ± 0.53
ILKPDMWFKGARCDTNQLNC	-0.62 ± 0.39
FCTHPSFGTVMGMRAETGLD	0.516 ± 0.81
SCYFLFGHDG	-0.517 ± 0.49
FDYVLSGICIPLKSIGVSFG	8.385 ± 0.053
GDYTYRG	0.773 ± 0.66
FLSRIYESLSTVI	inactive
FVFTLIWGHSSKLSESVSFL	inactive
WPTSSTYQHWFD	0.606 ± 0.41
YVCLFEFVMVCCDFTLFCKV	0.585 ± 0.8
CEWHYRRGFMMIGVMWNAVF	0.427 ± 0.36
SLLHPFLTVGVCMCRYGVNI	1.81 ± 0.083
